From patent publication US20130323187A1
* marks the point of attachment. Decanoyl = CCCCCCCCCC(=O)*; CH2Cl = ClC*

T1: Decanoyl-Arg-Val-Lys-Arg-CMK (FI-I, CALBIOCHEM)
T1 sequence: RVKR

T2: D-6R
T2 sequence: XXXXXXXXXX

T3: D-9Rac/am
T3 sequence: XXXXXXXXXXXXX


Columns and labels:
[1] = tested on: T1, Decanoyl-Arg-Val-Lys-Arg-CMK (FI-I, CALBIOCHEM)
D-6R = tested on: T2, D-6R
D-9Rac/am = tested on: T3, D-9Rac/am
Recombinant furin = test: Ki for inhibition of furin, given as the comparison in the Boc-RVRR-MCA enzyme assay
Chain of Recombinant furin (P09958 108-715): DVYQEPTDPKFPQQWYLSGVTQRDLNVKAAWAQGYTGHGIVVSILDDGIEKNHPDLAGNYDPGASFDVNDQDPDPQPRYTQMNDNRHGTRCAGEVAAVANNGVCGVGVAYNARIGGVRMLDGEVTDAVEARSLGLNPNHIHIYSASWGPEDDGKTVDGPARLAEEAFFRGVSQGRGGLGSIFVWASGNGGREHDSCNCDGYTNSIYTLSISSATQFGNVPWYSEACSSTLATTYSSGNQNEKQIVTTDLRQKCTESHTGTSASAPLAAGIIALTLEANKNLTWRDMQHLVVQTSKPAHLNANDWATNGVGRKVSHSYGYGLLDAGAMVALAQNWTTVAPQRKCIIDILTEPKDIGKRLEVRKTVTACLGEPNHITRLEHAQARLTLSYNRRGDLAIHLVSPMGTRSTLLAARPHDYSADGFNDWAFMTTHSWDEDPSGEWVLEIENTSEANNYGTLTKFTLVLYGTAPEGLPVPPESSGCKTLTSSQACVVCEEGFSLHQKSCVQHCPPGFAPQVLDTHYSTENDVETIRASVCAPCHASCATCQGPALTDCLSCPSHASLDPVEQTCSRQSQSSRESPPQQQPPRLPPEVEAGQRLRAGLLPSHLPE

Molecule	in vitro furin activity (cleavage of Boc-RVRR-MCA) [1]	in vitro furin activity (cleavage of Boc-RVRR-MCA) (L-Bel1)	in vitro furin activity (cleavage of Boc-RVRR-MCA) (D-6R)	in vitro furin activity (cleavage of Boc-RVRR-MCA) (D-9Rac/am)	Ki (Recombinant furin) [nM]
Recombinant furin	furin activity is inhibited by the specific furin inhibitor Decanoyl (d)-RVKR-chloromethylketone (CMK)	inhibited to completion in vitro furin activity	inhibited to completion in vitro furin activity	inhibited to completion in vitro furin activity	–
Decanoyl-RVKR-CH2Cl [Decanoyl-Arg-Val-Lys-Arg-CMK (FI-I, CALBIOCHEM)]	–	–	–	–	1
